Drawing on patent US20150110760A1, this text covers IFN-γ production by transduced human T cells after 24 h coculture with iDCs or mDCs (5:1), ELISA and specific lysis of RMA/B7-H6 cells by transduced mouse T cells, 5-h LDH release, E:T 1:1 for two substances.

The target of test [1] is NKp30 ligands on human dendritic cells (iDCs and mDCs). Description: cell-based or functional assay.
The next test addresses B7-H6 (human) (UniProt Q68D85). The test can be described thus: cell-based or functional assay.
Sequence of UniProt Q68D85 (Q68D85 25-454): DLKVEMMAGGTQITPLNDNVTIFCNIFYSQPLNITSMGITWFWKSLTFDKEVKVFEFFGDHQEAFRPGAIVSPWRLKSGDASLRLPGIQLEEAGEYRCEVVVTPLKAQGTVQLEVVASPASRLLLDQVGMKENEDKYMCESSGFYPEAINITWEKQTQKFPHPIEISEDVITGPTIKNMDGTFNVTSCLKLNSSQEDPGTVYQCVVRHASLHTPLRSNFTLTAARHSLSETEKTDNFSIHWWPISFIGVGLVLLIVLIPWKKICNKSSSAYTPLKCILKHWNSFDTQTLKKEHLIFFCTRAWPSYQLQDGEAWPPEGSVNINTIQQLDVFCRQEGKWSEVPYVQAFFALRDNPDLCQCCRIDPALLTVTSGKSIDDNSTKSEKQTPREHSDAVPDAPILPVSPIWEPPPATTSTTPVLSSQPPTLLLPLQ

The substance NKp30-CD28-CD3ζ chimeric receptor returned an IFN-γ production by transduced human T cells after 24 h coculture with iDCs or mDCs (5:1), ELISA in test [1] of 200 to 800 pg/mL. In the test with B7-H6 (human), the specific lysis of RMA/B7-H6 cells by transduced mouse T cells, 5-h LDH release, E:T 1:1 stood at 80%.
In the test with B7-H6 (human), NKp30-CD3ζ chimeric receptor registered a specific lysis of RMA/B7-H6 cells by transduced mouse T cells, 5-h LDH release, E:T 1:1 of 80%.
